Target: GAPS4a of GAPS4^MAVP-R (Vibrio parahaemolyticus MAVP-R) (Vibrio parahaemolyticus MAVP-R)
Assay: SEC-MALS

**Q.** “GAPS4b of GAPS4^MAVP-R (Vibrio parahaemolyticus MAVP-R) (natural protein)” was tested. Which stoichiometry N (GAPS4b per GAPS4a (2:2)) did it give?
**A.** The stoichiometry N (GAPS4b per GAPS4a (2:2)) was 1.

— doi:10.1101/2025.09.07.674715
